For experiment [1], the target named is T1, HLA-B*08:01 (human).
T1 construct: Peptide-receptive MHC class I monomer in the UV-ligand exchange assay
The experiment is described as follows: UV peptide exchange, anti-b2m ELISA; exchange yield grade. On the technique in general: An ELISA detects its analyte on a solid surface through an enzyme-linked reagent.

Experiment [2] concerns the target T1, HLA-B*08:01. Nature of the experiment: allele assigned to HLA ligand eluted from tissue (IP, LC-MS).
The target of experiment [3] is T2, HLA-A*24:02 (human).
T2 construct: Peptide-receptive MHC class I monomer in the UV-ligand exchange assay
The experiment is described as follows: UV peptide exchange, anti-b2m ELISA; exchange yield grade.

As to NQKGLISL, in experiment [1], the binding result is recorded as “binds”. For the molecule TAMTTLMAF, the binding result in experiment [2] is given as “binds”. In the case of YAFRNQTL, the binding result in experiment [1] is “binds”. Still for that read-out and setting: the same measure for VANDRLSFL: “binds”. As for IFDLSDPRF, in experiment [3], the binding result is “binds”.

Take LHLNPGLSF: the binding result in experiment [3] is on record as “binds”. Consider ILRTVLPSL, for which the binding result in experiment [2] was “binds”. Take TILAKQNVL: the binding result in experiment [2] is listed as “binds”.
